B1: Gad2/pNW2: glutamate decarboxylase homolog from Alstroemeria (SEQ ID NO: 2), expressed in E. coli from vector pNW2, crude protein (protein)
chain: MVLSSAVSDNTGPVHCTFASRYVRDAPARFRMPENSIPKDTAYQIVNDELMLDGNPRLNLASFVTTWMEPECDRLMIAAANKNYVDMDEYPVTTELQNRCVNIIAHLFNAPIGDEETAVGVGTVGSSEAIMLAGLAFKRKWQNKKKAEGKPYDKPNIVTGANVQVCWEKFARYFEVELKEVKLREGYYIMDPEKAVEMVDENTICVAAILGSTLTGEFEDVKLLNKLLEEKNKETGWDTPIHVDAASGGFIAPFLYPELEWDFRLPLVKSINVSGHKYGLVYAGVGWVVWRNKEDLPEELIFHINYLGADQPTFTLNFSKGSSQIIAQYYQFIRLGFQGYKNIMENCMENTRILREGLQETGRFEIVSKDIGVPLVAFALKDSSQYTVFEIADAMRRFGWIIPAYTMPKDAEHIAVLRVVIREDFSRSLAERLVNDMKKVLAELDVLPSRITTIAHVTAVENDNGEAVIKKSFLEIEKKVITHWKDVVMNGKKTNKVC
modifications: Alstroemeria
B2: Gad3del/pNW12: glutamate decarboxylase homolog from Alstroemeria with in-frame deletion (SEQ ID NO: 4), N-terminal His-tag fusion from vector pNW12 (protein)
chain: MALSSVVSDSNNQVQCTYASRYVRDEAPGFRMPEKSIPKEAAFTMINDELMLDGNPRLNLASFVTTWMEPECDRLMMSTINKNYALMDDYPVTIDIQNRCVNMIANLFNAPIGEGETTVGCATVGSSEAMMLAGLAFKRNWQNKRKAEGKPYDKPNMVTGSNVQVCWVKFAKYFEVEMKKVNLREGYYVMDPEKAVEMVDENTICVAAILGSTLTGEFEDVKLLNDLLVEKNKKTGWDTPIHVDAAIGGFIAPFIYPELEWDFRLPLVKSINVSGHKYGLVYPGVGWVVWRNKNDLPEELIFHINYLGIDQPTFTLNFSKGSNQIIGQYYQLIRLGFEGYKNIMENCTENARILREHLEEMGVFEIISKDIGAPLVTIALKDSSKHSVFKIADTIRRFGWTIPAYTMPKDVEHIAVLRVVIREDFSRSLAERLANDMKKVLVELDIHPSRTTTIAHVKAVENGNGNYVIKKSIVENGNGEHVIKKSIGENGNGKHAIKNCRDAVIANAA
modifications: N-terminal His-tag; Alstroemeria
B3: gad3chim: chimeric glutamate decarboxylase homolog from Alstroemeria (SEQ ID NO: 6), N-terminal His-tag fusion from vector pNW9 (protein)
chain: MALSSVVSDSNNQVQCTYASRYVRDEAPGFRMPEKSIPKEAAFTMINDELMLDGNPRLNLASFVTTWMEPECDRLMMSTINKNYALMDDYPVTIDIQNRCVNMIANLFNAPIGEGETTVGCATVGSSEAMMLAGLAFKRNWQNKRKAEGKPYDKPNMVTGSNVQVCWVKFAKYFEVEMKKVNLREGYYVMDPEKAVEMVDENTICVAAILGSTLTGEFEDVKLLNDLLVEKNKKTGWDTPIHVDAAIGGFIAPFIYPELEWDFRLPLVKSINVSGHKYGLVYPGVGWVVWRNKNDLPEELIFHINYLGIDQPTFTLNFSKGSNQIIGQYYQLIRLGFEGYKNIMENCTENARILREHLEEMGVFEIISKDIGAPLVTIALKDSSKHSVFKIADTIRRFGWTIPAYTMPKDVEHIAVLRVVIREDFSRSLAERLANDMKKVLVELDIHPSRTTTIAHVKAVENGNGNYVIKKSIVENGNGEHVIKKSIGENGNGKHAIKNEHVIKKSIGENFNGKHAIKNCRDAVIANAA
modifications: N-terminal His-tag; Alstroemeria

Experiments:
[1] = Decarboxylase enzyme activity of E. coli extracts, substrate D,L-γ-methyleneglutamate (HPLC of FMOC derivatives); type: biochemical; conditions: for Rate for each substrate: γ-methyleneglutamate (2): crude protein, 20 mM D,L-γ-methyleneglutamate, pH 5.8, room temperature; for enzyme activity against D,L-γ-methyleneglutamate compared with L-glutamate: proteins from expressing cells
Procedure: (§1) Chemically competent BL21 (DE3) cells (Novagen) were transformed with pNW2, pNW12 and pNW9, as well as with plasmids pET28a and pET29a. An isolated colony of freshly transformed cells was inoculated into 2 mL of LB containing kanamycin (50 μg/mL) and the culture grown overnight at 37° C. Cultures were transferred to 250 mL of LB containing kanamycin (50 μg/mL) and grown at 22° C. to OD 0.6-1.0, at which point they were induced with IPTG (0.1 mM). Induced cells were grown for an additional 14 h and harvested by centrifugation at 10,000× g.
(§2) Cells were resuspended in 5 mL of extraction buffer (50 mM Tris-HCl, pH 7.5, 0.2 mM EDTA, 10% glycerol, 1 mM DTT and 1 mM fresh AEBSF) and disrupted by two passes through a French press cell (12,000 psi). Soluble protein extracts were obtained from the supernatant fraction after centrifugation at 10,000× g for 10 min. Protein concentrations were determined using a Bradford reagent (Bio-Rad) (Bradford, Anal. Biochem. 72:248-254 (1976)).
(§3) Enzyme activity was determined using a method similar to that of Snedden et al. (J. Biol. Chem. 271:4148-4153 (1996)) and Turano et al. (Plant Physiol. 117:1141-1421 (1998)). Assays were carried out in a volume of 200 μL with 200 mM pyridine-HCl, pH 5.8, 10 mM NaCl, 0.1 mM PLP, 20 mM L-glutamate or D,L-γ-methyleneglutamate, and 20 to 50 uL of enzyme extract. The reactions were incubated at room temperature and 50 μL aliquots were removed at various times. Ethanol (100 μL) was added to terminate the reaction and precipitate the proteins. Samples were centrifuged at 10,000× g for 10 min. The supernatants were transferred to a fresh tube and dried under vacuum after which they were dissolved in 500 μL of borate buffer (400 mM, pH 10). For HPLC analysis, 20 μL of the sample was derivatized by mixing with 20 μL of FMOC ((9-fluorenylmethoxycarbonyl)). FMOC-derivatized samples were separated on a Novapak C18 column (3.9×150 mm, Waters) using an Alliance 2690 HPLC with a 9600 PDA detector (Waters). Samples were injected (16 μL) and separated with a gradient of Buffer A (40 mM NaPO4, pH 7.8) to Buffer B (methanol:acetonitrile:water/45:45:10). Assay products were FMOC-derivatized and quantified by comparison with standards. In each experiment, enzyme activity determinations were performed in triplicate. Proteins from Escherichia coli expressing empty vectors pET28a and pET29a were used as controls.

[2] = Decarboxylase enzyme activity of E. coli extracts, substrate L-glutamate (HPLC of FMOC derivatives); type: biochemical; conditions: for Rate for each substrate: Glutamate (1): crude protein, 20 mM L-glutamate, pH 5.8, room temperature; for Ratio (½): rate with glutamate (1) over rate with γ-methyleneglutamate (2)
Procedure: as §1, §2, §3

Row | Molecule | Rate for each substrate: γ-methyleneglutamate (2) [1] [μmol/min^−1/mg^−1] | Rate for each substrate: Glutamate (1) [2] [μmol/min^−1/mg^−1] | enzyme activity with L-glutamate compared with D,L-γ-methyleneglutamate as substrate ([2]; proteins from expressing cells) | Ratio (½) [2] | enzyme activity against D,L-γ-methyleneglutamate compared with L-glutamate [1]
1 | B1 | 0.8 | 12.0 | sixteen times higher | 16 | –
2 | B2 | 12.4 | 7.0 | – | 0.56 | much higher
3 | B3 | – | – | – | – | much higher

— patent US20030170653A1, “Biological method for the production of tuliposide A and its intermediates” (priority 2001, published 2003)
